Measured values reported in US20210246209A1 (SHANGHAI JUNSHI BIOSCIENCES, published 2021).
Where two headings read alike, the source gives them in different places.

T1: hBTLA (human BTLA protein coated on plates or coupled to a chip) (human, UniProt Q7Z6A9 31-157, limits assumed)
T1 sequence (looked up): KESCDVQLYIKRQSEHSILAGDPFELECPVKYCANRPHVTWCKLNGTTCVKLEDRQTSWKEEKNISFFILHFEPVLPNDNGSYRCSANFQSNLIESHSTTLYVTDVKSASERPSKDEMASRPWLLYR

T2: recombinant protein of human BTLA extracellular domain (hBTLA-ECD-FC) (human, UniProt Q7Z6A9 31-157, biotin-labeled in the FACS blocking assays (site not stated))
T2 construct: extracellular domain; also called BTLA-Fc; biotin-labeled hBTLA; not shown: Fc of the self-constructed HX1-FC expression plasmid
T2 sequence (looked up): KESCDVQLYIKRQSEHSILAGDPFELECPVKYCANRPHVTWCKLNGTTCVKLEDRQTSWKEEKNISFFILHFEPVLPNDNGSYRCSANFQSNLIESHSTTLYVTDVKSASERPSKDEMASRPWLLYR


Assays:
[1] = biological target: T3, human BTLA expressed on cells (human, UniProt Q7Z6A9 31-289); test: cell-based or functional assay
[2] = biological target: T3, human BTLA expressed on cells; test: FACS on 293F cells expressing hBTLA
Method: The humanized anti-BTLA antibodies were determined for their binding ability to hBTLA expressed on cells using cell-based flow cytometry (FACS). […] Then the cells were mixed with 50 μL of antibody diluent at different concentrations (initial concentration: 10 μg/mL, 3-fold titration), and incubated at room temperature for 30 minutes. After being washed with an FACS buffer twice, the cells were added with 100 μL of goat anti-human IgG-PE antibody, incubated for 30 minutes away from light, and assayed by FACS after two washes with an FACS buffer. The washed cells were resuspended in 4° C. buffer containing propidium iodide (PI) and 0.02% sodium azide that prevents receptor internalization and analyzed by flow cytometry. Viable cells were gated on the basis of PI positive cells being excluded from the FSC/SSC gate and their geometric mean fluorescence intensity was measured. The data were analyzed using a sigmoidal dose-response model within Prism™ software.
The humanized antibodies hu17, hu18, and hu19 can effectively bind to hBTLA on 293 cells.

[3] = biological target: T1, hBTLA (human BTLA protein coated on …); test: ELISA, hBTLA coated at 0.5 µg/mL, anti-human IgG4-HRP detection
Method: (§1) The binding specificity of the humanized antibodies to hBTLA was determined by conventional ELISA method. A 96-well microplate was coated with 0.5 μg/mL hBTLA and incubated at 37° C. for 60 minutes. The solution in wells was then discarded, and the wells were washed 3 times with washing buffer, and blocked for 60 minutes with PBS containing 2% BSA. After being washed 3 times with washing buffer, the wells were added with gradiently-diluted antibodies, incubated at 37° C. for 60 minutes, and washed 3 times with washing buffer before adding a HRP-labeled mouse anti-human IgG4 secondary antibody diluted at 1:10000. The mixture was incubated at 37° C. for 1 hour, washed three times with washing buffer, and added with 100 μL of TMB substrate solution for color development at room temperature for 30 minutes, then the reaction was stopped with 100 μL of 2M hydrochloric acid solution and the absorbance was read at 450 nm.
The humanized antibodies hu17, hu18, and hu19 can specifically bind to hBTLA.

[4] = biological target: T2, recombinant protein of human BTLA …; test: FACS, blocking of biotin-labeled hBTLA binding to hHVEM-293F cells
Method: (§2) Then the cells were mixed with previously biotin-labeled hBTLA (1 μg/mL) protein, incubated at 4° C. for 15 minutes, followed by mixing with 50 μL of humanized antibody diluent (initial concentration: 5 μg/mL, 3-fold titration) at different concentrations, and incubating at room temperature for 30 minutes. After being washed with an FACS buffer twice, the cells were added with 100 μL of goat anti-human IgG-PE antibody, incubated for 30 minutes away from light, and assayed by FACS after two washes with an FACS buffer. The washed cells were resuspended in 4° C. buffer containing propidium iodide (PI) and 0.02% sodium azide that prevents receptor internalization and analyzed by flow cytometry. Viable cells were gated on the basis of PI positive cells being excluded from the FSC/SSC gate and their geometric mean fluorescence intensity was measured. The data were analyzed using a sigmoidal dose-response model within Prism™ software.
The […] antibodies hu17, hu18, and hu19 can effectively block the binding of human BTLA to HVEM on the cell surface.

[5] = biological target: recombinant human FcRn (human) (UniProt P55899); test: SPR, Biacore T200, Fc receptor captured by anti-His antibody, antibody injected
[6] = biological target: recombinant human FcγRI (CD64) (human) (UniProt P12314); test: as above
[7] = biological target: recombinant human FcγRIIIA (CD16a) V176 (human) (UniProt P08637); test: as above
[8] = biological target: T2, recombinant protein of human BTLA …; test: SPR, Biacore T200, BTLA-Fc amine-coupled to chip, antibody as analyte, 1:1 fit
Method: The assay was carried out using a Biacore T200 instrument (GE Healthcare). Series S CMS chip was loaded on the instrument and the system buffer used was HBS-EP+(10 mM HEPES, pH 7.4, 150 mM NaCl, 3 mM EDTA, 0.05% surfactant P20). The BTLA-Fc antigens were coupled in a chip detection channel: injecting a mixed solution of 400 mM EDC and 100 mM NHS at 10 μL/min for 420 s to activate the surface of the chip, diluting the BTLA-Fc antigens in a 10 mM sodium acetate/acetic acid (pH 5.5) buffer to a final concentration of 20 μg/mL and injecting at 10 μL/min for coupling, and injecting a 1M ethanolamine-hydrochloric acid solution (pH 8.5) at 10 μL/min for 420 s for blocking.
Antibodies were diluted in a 2-fold gradient with Biacore system buffer for a total of 6 concentration points. Concentration gradients were 24 nM, 12 nM, 6 nM, 3 nM, 1.5 nM and 0.75 nM, with 24 nM being a replicate. Data were analyzed using Biacore T200 Evaluation Software (version no. 3.0, GE Healthcare). Data were fitted using a model of 1:1 Binding. The kinetic constants of the binding of the antibodies to the antigens, namely, the association rate constant ka (1/Ms), dissociation rate constant kd (1/s) and the affinity constant kd (M), were obtained by fitting, and the results are shown in Table 8.

[9] = biological target: recombinant human FcγRIIIA (CD16a) V176 (human) (UniProt P08637); test: SPR, Biacore T200, Fc receptor captured by anti-His antibody, antibody injected; IgG4 subtype (hu18), kinetics N/A
[10] = biological target: T1, hBTLA (human BTLA protein coated on …); test: ELISA, hBTLA coated at 0.5 µg/mL, anti-human IgG4-HRP detection; remark: listed apart in the source
Method: as §1, with “ability” for “specificity”, “chimeric” for “humanized”, “assayed” for “determined”, “ELISA.” for “conventional ELISA method.”
The chimeric antibodies ch7, ch12, ch17, ch22 and ch27 can specifically bind to hBTLA.

[11] = biological target: T2, recombinant protein of human BTLA …; test: FACS, blocking of biotin-labeled hBTLA binding to hHVEM-293F cells; remark: listed apart in the source
Method: as §2, with “chimeric” for “humanized”, “intensity (MFI)” for “intensity”, “PrismTM” for “Prism™”
The chimeric antibodies ch12, ch17, ch22 and ch27 can effectively block the binding of human BTLA to HVEM on the cell surface.

recombinant human FcγRI (CD64) (human), sequence (P12314 16-288 limits assumed): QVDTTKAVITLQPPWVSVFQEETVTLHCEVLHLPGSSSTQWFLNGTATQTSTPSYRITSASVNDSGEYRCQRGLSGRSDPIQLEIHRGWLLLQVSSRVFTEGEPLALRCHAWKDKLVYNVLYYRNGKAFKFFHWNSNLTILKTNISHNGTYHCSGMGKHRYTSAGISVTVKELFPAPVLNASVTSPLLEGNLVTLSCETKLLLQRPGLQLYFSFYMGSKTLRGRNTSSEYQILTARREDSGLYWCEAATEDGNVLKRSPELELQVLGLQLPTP
recombinant human FcγRIIIA (CD16a) V176 (human), sequence (P08637 17-208 F176V limits assumed): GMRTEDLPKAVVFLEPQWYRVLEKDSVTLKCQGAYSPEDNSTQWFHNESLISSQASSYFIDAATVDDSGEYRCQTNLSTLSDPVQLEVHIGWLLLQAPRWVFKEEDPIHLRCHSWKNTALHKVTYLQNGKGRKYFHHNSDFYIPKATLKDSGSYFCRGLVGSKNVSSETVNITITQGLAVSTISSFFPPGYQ

| EC50 (luciferase reporter, T cell activation) [1] [µg/mL] | EC50 [2] [µg/mL] | IC50 [4] [µg/mL] | EC50 [10] [µg/mL] | IC50 [11] [µg/mL] | Binder | further results |
| --- | --- | --- | --- | --- | --- | --- |
| 0.277 | 0.0893 | 0.172 |  |  | humanized antibody hu18 (antibody, IgG4, V domains shown, also called JS004; recombinant human anti-BTLA antibody) VH: QVQLVQSGAEVKKPGASVKLSCKASGYNFKHTYAHWVRQAPGQGLEWIGRIDPANGNTKYDPKFQGRATMTADTASNTAYLELSSLRSEDTAVYYCVADHYGSSLLDYWGQGTLVTVSS VL: DVVMTQTPLSLSVTPGQPASISCKSSQSLLDSDGKTYLNWFQQRPGQSPRRLIYLVSKLDSGVPDRFSGSGSGTDFTLKISRVEAEDVGVYYCWQGTYFPYTFGQGTKLEIK | EC50 [3]: 0.0054 µg/mL; Kd [5]: 138 nM; koff [5]: 0.0708 s⁻¹; kon [5]: 512000 M⁻¹ s⁻¹; Kd [6]: 18.4 nM; koff [6]: 0.00387 s⁻¹; kon [6]: 210000 M⁻¹ s⁻¹; fold weaker than the control antibody of the IgG1 subtype (hu18-IgG1) [7]: 400 fold; Kd [8]: 0.136 nM; koff [8]: 8.67e-05 s⁻¹; kon [8]: 639000 M⁻¹ s⁻¹; Kd [9]: 60200 nM |
| 0.29 | 0.0951 | 0.162 |  |  | humanized antibody hu19 (antibody, V domains shown, It was detected with an anti-human IgG4 secondary antibody) VH: QVQLVQSGAEVKKPGASVKLSCKASGYNFKHTYAHWVRQAPGQGLEWIGRIDPANGNTKYDPKFQGRATMTADTASNTAYLELSSLRSEDTAVYYCVADHYGSSLLDYWGQGTLVTVSS VL: DIVMTQTPLSLSVTPGQPASISCKSSQSLLDSDGKTYLNWFQQRPGQSPRRLMHLVSKLDSGVPDRFSGSGSGTDFTLKISRVEAEDVGVYYCWQGTYFPYTFGQGTKLEIK | EC50 [3]: 0.0066 µg/mL |
| 0.139 | 0.0881 | 0.157 | 0.0094 | 0.0772 | chimeric antibody ch12 (antibody, human IgG4, V domains shown, T0010 gives only CDR numbers (HCDR 13-15, LCDR 10-12)) VH: EVQLQQSGADLVKPGASVKLSCTASGFNFKHTYAHWVKQRPEQGLEWIGRIDPANGNTKYDPKFQGKATMTADTASNAAFLQLSSLTSEDTAVYYCVADHYGSSLLDYWGQGTSLTVSS VL: EVVMTQTPLTLSVTIGQSASISCKSSQSLLDSDGKTYLNWFLQRPGQSPKRLMHLVSKLDSGVPDRFTGSGSGTDFTLKISGVEAEDLGVYYCWQGTYFPYTFGGGTKLETK |  |
|  |  |  | 0.0298 | 0.0761 | chimeric antibody ch17 (antibody, human IgG4, V domains shown, T0010 gives only CDR numbers (HCDR 19-21, LCDR 10-12)) VH: EVQLQQSGADLVKPGASVKLSCTASGFNIKDTYVHWVKQRPEQGLEWIGRIDPANGHTKFDPKFQGKATITADTSSNTANLQISSLTSEDTAVYYCVSDYYGSSLLDYWGQGTTLTVSS VL: EVVMTQTPLTLSVTIGQSASISCKSSQSLLDSDGKTYLNWFLQRPGQSPKRLMHLVSKLDSGVPDRFTGSGSGTDFTLKISGVEAEDLGVYYCWQGTYFPYTFGGGTKLETK |  |
|  |  |  | 0.0052 | 0.0695 | chimeric antibody ch27 (antibody, human IgG4, V domains shown, T0010 gives only CDR numbers (HCDR 28-30, LCDR 10-12)) VH: EVHLQQSGTELMKPGASVKLSCTASGLNIRDTYMHWVKQRPEQGLEWIGRIDPANGNTKFDPKFQGKATLTSDTSSNTAYLHFSSLTSEDAAVYYCVSDHYGSSLLDYWGQGTSLTVSS VL: EVVMTQTPLTLSVTIGQSASISCKSSQSLLDSDGKTYLNWFLQRPGQSPKRLMHLVSKLDSGVPDRFTGSGSGTDFTLKISGVEAEDLGVYYCWQGTYFPYTFGGGTKLETK |  |
|  |  |  | 0.0066 |  | chimeric antibody ch7 (antibody, human IgG4, V domains shown, T0010 gives only CDR numbers (HCDR 4-6, LCDR 10-12)) VH: EVQLQQSGAELVKPGASVKLSCTVSGFNIKDSYIHWVKQRPEQGLEWIGRIDPANGNTKYDPKFRGKATITADASSNTAALQVSSLTSEDTAVYFCVGDHYGSSLFDYWGHGTTLTVSS VL: EVVMTQTPLTLSVTIGQSASISCKSSQSLLDSDGKTYLNWFLQRPGQSPKRLMHLVSKLDSGVPDRFTGSGSGTDFTLKISGVEAEDLGVYYCWQGTYFPYTFGGGTKLETK |  |
|  |  |  | 0.0373 | 0.0757 | chimeric antibody ch22 (antibody, human IgG4, V domains shown, T0010 gives only CDR numbers (HCDR 25-27, LCDR 10-12)) VH: EVQLQQSGAELVRPGASVKLSCTVSGFNIKDTYVHWVKQRPEQGLEWIGRIDPANGHTKYDPKLQGTATITADTSSNTAYLQLSSLTSEDTAVYYCATDYYGSSLLDYWGQGTTLTVSS VL: EVVMTQTPLTLSVTIGQSASISCKSSQSLLDSDGKTYLNWFLQRPGQSPKRLMHLVSKLDSGVPDRFTGSGSGTDFTLKISGVEAEDLGVYYCWQGTYFPYTFGGGTKLETK |  |
